Measured values published in paper PMC6072106.

What was measured:
Settings in all cases: EMSA: 24 mM Tris/HCl pH 7.5, 50 mM KCl, 10 mM MgCl2, 1 mM CaCl2, 0.1 mM EDTA, 5% glycerol, 0.05 ug/ul BSA, 0.05 ug/ul salmon sperm DNA, 20 ul, 20 min room …
[1] = biological target: T1, Fis (UniProt Q88DK4); test: DNase I footprinting
T1 sequence: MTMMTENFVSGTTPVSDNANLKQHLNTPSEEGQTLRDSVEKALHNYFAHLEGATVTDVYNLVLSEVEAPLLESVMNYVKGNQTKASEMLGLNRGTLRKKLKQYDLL

[2] = biological target: T1, Fis; test: EMSA with LF2 competition
[3] = biological target: T1, Fis; test: EMSA
[4] = biological target: T1, Fis; test: competition

Sequence	binding [1]	binding [2]	binding [3]	binding [4]
AGGATCCAATCGCCAGATGAACTTTACAAGGCGCAGAACAGCGAAATTCGAGCGCAGCAGTGGCACCGACCTTAATTATCATTACAGGGTTTGCAATTCGTTACCCGCTGCAAGAAACATAATTAACAAAACCGCGCGTAATGCCCGAATTTCAAGGCTCTCAGCCAGTTACGAACG (double strand) [Fis-nuo3-Fis-nuo4-mut]	binds more weakly	binds more weakly	–	–
AGGATCCAATCGCCAGATGAACTTTACAAGGCGCAGAACAGCGAAATTCGAGCGCAGCAGTTCAAATGATATTAATTATCATTACAGGGTTTGCAATTCGTTACCCGCTGCAAGAAACATAAGTCAGCCAACCGCGCGTAATGCCCGAATTTCAAGGCTCTCAGCCAGTTACGAACG (double strand) [Fis-nuo3-mut-Fis-nuo4]	binds more weakly	binds more weakly	–	–
AGGATCCAATCGCCAGATGAACTTTACAAGGCGCAGAACAGCGAAATTCGAGCGCAGCAGTTCAAATGATATTAATTATCATTACAGGGTTTGCAATTCGTTACCCGCTGCAAGAAACATAATTAACAAAACCGCGCGTAATGCCCGAATTTCAAGGCTCTCAGCCAGTTACGAACG (double strand) [nuoA promoter Fis-nuo3-Fis-nuo4 (170 bp)]	binds	–	binds	–
CGTGGGGTTATGCCGAGATAAGGCAAAAATTAGGACATTCGTTCTGTAAATATATGATTTAAAAGGTTATTCGAGAGGCCGTGGCTTGCTGGTCATCCACCGTCTGAGCTCAGC (double strand) [RF1]	–	–	–	no binding
GCGCGTAATGCCCGAATTTCAAGGCTCTCAGCCAGTTACGAACGTTTGTCCTACCTAATCCTACGAATAAATTTGCGACAGAAATTTTACTTGCACCAGGTTTACCCATAAAATCAGCGCGATTGATCCGGCTGCGACATTTGGTCACTG (double strand) [Fis-nuo1-Fis-nuo2-mut]	binds more weakly	binds more weakly	–	–
GCGCGTAATGCCCGAATTTCAAGGCTCTCAGCCAGTTACGAACGTTTTTTGTACTTAATCCTACGAATAAATTTGCGACAGAAATTTTACTTGCACCAGGTTTACCCATAAAATCAGCGCGATTGATCCGGCTGCGACATTTGGTCACTG (double strand) [nuoA promoter Fis-nuo1-Fis-nuo2 (150 bp)]	binds	–	binds	–
GCGCGTAATGCCCGAATTTCAAGGCTCTCAGCCAGTTACGAACGTTTTTTGTACTTAATCCTACGAATAAGGTTGCGAGTCGAATTTTACTTGCACCAGGTTTACCCATAAAATCAGCGCGATTGATCCGGCTGCGACATTTGGTCACTG (double strand) [Fis-nuo1-mut-Fis-nuo2]	binds more weakly	–	–	–
